T1: PfSUB1 peptide substrate KLVSADNIDIS, tagged with fluorophore and quencher
T1 chain: KLVSADNIDIS

T2: PvSUB1 peptide substrate KLVGADDVSLA, tagged with fluorophore and quencher
T2 chain: KLVGADDVSLA

B1: recombinant Plasmodium falciparum SUB1 (PfSUB1) (protein)
chain: MLLVNQSHQGFNKEHTSKMVSAIVLYVLLAAAAHSAFAADLGSKEVRSEENGKIQDDAKKIVSELRFLEKVEDVIEKSNIGGNEVDADENSFNPDTEVPIEEIEEIKMRELKDVKEEKNKNDNHNNNNNNISSSSSSSSNTFGEEKEEVSKKKKKLRLIVSENHATTPSFFQESLLEPDVLSFLESKGNLSNLKNINSMIIELKEDTTDDELISYIKILEEKGALIESDKLVSADNIDISGIKDAIRRGEENIDVNDYKSMLEVENDAEDYDKMFGMFNESHAATSKRKRHSTNERGYDTFSSPSYKTYSKSDYLYDDDNNNNNYYYSHSSNGHNSSSRNSSSSRSRPGKYHFNDEFRNLQWGLDLSRLDETQELINEHQVMSTRICVIDSGIDYNHPDLKDNIELNLKELHGRKGFDDDNNGIVDDIYGANFVNNSGNPMDDNYHGTHVSGIISAIGNNNIGVVGVDVNSKLIICKALDEHKLGRLGDMFKCLDYCISRNAHMINGSFSFDEYSGIFNSSVEYLQRKGILFFVSASNCSHPKSSTPDIRKCDLSINAKYPPILSTVYDNVISVANLKKNDNNNHYSLSINSFYSNKYCQLAAPGTNIYSTAPHNSYRKLNGTSMAAPHVAAIASLIFSINPDLSYKKVIQILKDSIVYLPSLKNMVAWAGYADINKAVNLAIKSKKTYINSNISNKWKKKSRYLHHHHHH
B2: recombinant enzymatically active form of Plasmodium vivax SUB1-Belem (PvSUB1-Belem), following auto-maturation at the KLVGAD//DVSLA site (protein)
chain: DVSLASVKDAVRRGESSVNWGKLRSTMLEVPSGESPPSHAASSGSPFDDDDDLLSEAALHREEAHLAGSKTTKGYKFNDEYRNLQWGLDLARLDETQDLINANRVSVTKICVIDSGIDYNHPDLRNNIDVNVKELHGRKGVDDDSNGVVDDVYGANFVNNSGDPMDDNYHGTHVSGIISAVGNNGIGIVGVDGHSKLVICKALDQHKLGRLGDMFKCIDYCISRQAHMINGSFSFDEYSNIFNASVEHLRSLGILFFVSASNCAHDKLSKPDIAKCDLAVNHRYPPILSKTHNNVIAVANLKRDLDESYSLSVNSFYSNIYCQLAAPGTNIYSTTPMNNYRKLNGTSMASPHVAAIASIVRSINPNLTYLQIVEILRNAIVKLPSLTERVSWGGYVDILRAVNLAIDSKAAPYIKSHSWFRWKQGSRRHHHHHH

Assays:
[1] = biological target: T1, PfSUB1 peptide substrate KLVSADNIDIS, …
[2] = biological target: T2, PvSUB1 peptide substrate KLVGADDVSLA, …

| Protein | apparent Km [1] | apparent Km [2] |
| --- | --- | --- |
| B1 | 30.2 µM±3.4 |  |
| B2 |  | 19.7 µM±1.7 |
